Reference: US20230017515A1 (JIANGSU ALPHAMAB BIOPHARMACEUTICALS, published 2023)

Molecular target: T1, human PD-L1 (WT) (human, UniProt Q9NZQ7 19-127, limits assumed)
T1 construct: also called human PD-L1 N-terminal IgV domain
Assay: affinity measurement, method not stated

T1 sequence (Q9NZQ7 19-127 limits assumed): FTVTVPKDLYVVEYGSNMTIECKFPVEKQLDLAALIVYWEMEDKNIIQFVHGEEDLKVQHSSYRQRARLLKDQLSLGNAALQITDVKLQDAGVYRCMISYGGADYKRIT

Kd: 5.92 nM
B1: PD-L1 ISVD-9 (VHH)
VHH: QVQLVESGGGLVQPGGSLRLSCAASGKMSSRRCMAWFRQAPGKERERVAKLLTTSGSTYLADSVKGRFTISRDNSKNTVYLQMNSLRAEDTAVYYCAADSFEDPTCTLVTSSGAFQYWGQGTLVTVSS
notes: also called ISVD specific for PD-L1; aPDL1.9
